# Measured values from patent publication US20260184794A1 (MOMENTA PHARMACEUTICALS, published 2026).
# T1: human α11 expressed on CHO-K1 cells (human, UniProt Q9UKX5 23-1188)
# T1 sequence (Q9UKX5 whole entry, looked up): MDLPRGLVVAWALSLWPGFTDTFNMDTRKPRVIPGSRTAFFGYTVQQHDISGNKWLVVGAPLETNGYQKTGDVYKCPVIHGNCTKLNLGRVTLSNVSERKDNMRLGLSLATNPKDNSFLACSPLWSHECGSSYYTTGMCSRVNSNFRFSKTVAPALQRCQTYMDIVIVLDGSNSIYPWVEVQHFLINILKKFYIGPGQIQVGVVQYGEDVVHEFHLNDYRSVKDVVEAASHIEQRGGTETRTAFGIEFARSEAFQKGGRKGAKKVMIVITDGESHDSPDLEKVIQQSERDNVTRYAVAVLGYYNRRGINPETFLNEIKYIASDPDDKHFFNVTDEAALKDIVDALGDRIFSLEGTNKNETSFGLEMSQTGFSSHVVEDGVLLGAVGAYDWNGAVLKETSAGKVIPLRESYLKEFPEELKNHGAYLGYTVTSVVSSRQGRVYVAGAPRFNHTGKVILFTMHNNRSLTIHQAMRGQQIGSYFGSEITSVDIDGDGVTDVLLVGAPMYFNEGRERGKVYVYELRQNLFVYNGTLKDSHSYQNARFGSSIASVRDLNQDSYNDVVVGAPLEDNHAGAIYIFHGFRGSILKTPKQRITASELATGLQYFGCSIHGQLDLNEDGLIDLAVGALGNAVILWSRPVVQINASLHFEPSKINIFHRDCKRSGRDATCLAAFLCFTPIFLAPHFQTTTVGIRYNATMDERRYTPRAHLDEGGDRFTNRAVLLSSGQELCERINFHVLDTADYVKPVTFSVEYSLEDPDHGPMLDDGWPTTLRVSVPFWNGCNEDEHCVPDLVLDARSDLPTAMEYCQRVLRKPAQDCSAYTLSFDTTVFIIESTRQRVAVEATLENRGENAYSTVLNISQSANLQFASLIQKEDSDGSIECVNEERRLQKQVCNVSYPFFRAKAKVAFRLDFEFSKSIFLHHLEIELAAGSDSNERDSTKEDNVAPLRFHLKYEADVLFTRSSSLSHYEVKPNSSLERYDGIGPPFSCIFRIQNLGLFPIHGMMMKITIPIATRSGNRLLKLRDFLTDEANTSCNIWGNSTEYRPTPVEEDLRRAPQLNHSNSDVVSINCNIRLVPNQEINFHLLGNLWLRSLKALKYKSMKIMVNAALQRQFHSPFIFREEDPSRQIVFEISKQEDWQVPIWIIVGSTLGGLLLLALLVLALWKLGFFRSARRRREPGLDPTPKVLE
# B1: 1994-01-C7 variant 54 (antibody, V domains shown)
# VH: QVQLVQSGAEVKKPGASVKVSCKASGYTFTSYGISWVRQAPGQGLEWMGWISAYNANTNYAQKLQGRVTMTTDTSTSTAYMELRSLRSDDTAAYYCARVTGITGTTIGPWGQGTMVTVSS
# VL: DIQMTQSPSSLSASVGDRVTITCRASQSISSYLNWYQQKPGKAPKLLIYDASSLESGVPSRFSGSGSGTEFTLTISSLQPDDFAVYYCQQYNNWPQTFGQGTKVEIK
# B2: 1994-01-C7 (antibody, V domains shown)
# VH: QVQLVQSGAEVKKPGASVKVSCKASGYTFTSYGISWVRQAPGQGLEWMGWISAYNGNTNYAQKLQGRVTMTTDTSTSTAYMELRSLRSDDTAAYYCARVTGITGTTIDPWGQGTMVTVSS
# VL: DIQMTQSPSSLSASVGDRVTITCRASQSISSYLNWYQQKPGKAPKLLIYDASSLESGVPSRFSGSGSGTEFTLTISSLQPDDFAVYYCQQYNNWPQTFGQGTKVEIK
# notes: Fully human, from phage display (scFv converted to IgG); also called 1994-01-C7 (#9); 1994-01-C07
# B3: 1994-01-C7 variant 58 (antibody, V domains shown)
# VH: QVQLVQSGAEVKKPGASVKVSCKASGYTFTSYGISWVRQAPGQGLEWMGWISAYNANVNYAQKLQGRVTMTTDTSTSTAYMELRSLRSDDTAAYYCARVTGITGTTIGPWGQGTMVTVSS
# VL: DIQMTQSPSSLSASVGDRVTITCRASQSISSYLNWYQQKPGKAPKLLIYDASSLESGVPSRFSGSGSGTEFTLTISSLQPDDFAVYYCQQYNNWPQTFGQGTKVEIK
# B4: 1994-01-C7 variant 60 (antibody, V domains shown)
# VH: QVQLVQSGAEVKKPGASVKVSCKASGYTFTSYGISWVRQAPGQGLEWMGWISAYNSNTNYAQKLQGRVTMTTDTSTSTAYMELRSLRSDDTAAYYCARVTGITGTTIGPWGQGTMVTVSS
# VL: DIQMTQSPSSLSASVGDRVTITCRASQSISSYLNWYQQKPGKAPKLLIYDASSLESGVPSRFSGSGSGTEFTLTISSLQPDDFAVYYCQQYNNWPQTFGQGTKVEIK
# B5: 79E3E3 (antibody, V domains shown)
# VH: QIQLVQSGPEVKKPGESVKISCKASGYTFTDYAMNWVKQAPGNGLKWMGWINTQTGKPTYADDFKQRFVFSLETSARTTYLQINNLNIEDTATYFCTRLGTGNTKGFAYWGQGTLVTVSS
# VL: DILINQSPASLTVSAGERVTMSCKSSQSLLYSENNQDYLAWYQQKPGQFPKLLIYGASNRHTGVPDRFTGSGSGTDFTLTISSVQAEDLADYYCEQTYRYPFTFGSGTKLEIK
# notes: Rat hybridoma antibody; also called Wild Type
# B6: 16E10 (antibody, V domains shown)
# VH: QSLEESGGDLVKPGASLTLTCRVSGFSFSSSYYMCWVRQAPGKGLEWIACIGTTRGSTYYATWAKGRFTISKISSTTVTLQMTSLTDADTATYFCARDATGYRINTIGLYFNLWGPGTLVTVSS
# VL: ELTQTPSSVEAAVGGTPTIKCQASQTIYSYLSWYQQKPGQPPKLLIYEASKLASGVPSRFSGSGSGTDYTLTISDLECADAATYYCQSYHGTASTEYNTFGGGTEVVVK
# What was measured:
# [1] = target: T1, human α11 expressed on CHO-K1 cells; experiment: cell-based or functional assay
# [2] = target: T2, α11β1 on human pulmonary myofibroblasts (human, UniProt Q9UKX5 23-1188; P05556 21-798); experiment: flow cytometry on human pulmonary myofibroblasts (title: Myofibroblast Binding); MFI against Log [µg/ml]
# T2 construct: whole, on cells; The cells are not transfected; also called HPF/MF
# Procedure: (§1) Human Pulmonary Fibroblasts (ScienCell) were cultured in complete Fibroblast Growth Medium (ScienCell) until 80% confluent in T-150 flasks. Cells were washed and harvested using Accutase. Cells were seeded into T-150 flasks at 7,500 cells/cm² in complete FGF and cultured for 72 hours. Cells were then washed and starved in serum reduced medium for 24 hours. After starvation, cells were treated with TGFβ1 (R&D Systems) for 72 hours. Cells were harvested using Accutase and seeded in 96-well conical bottom plates. Cells were blocked with Heat Inactived Fetal Bovine Serum (Gibco) for 30 minutes at 4° C. Cells were then incubated with anti-al I antibodies at the doses described in each figure for 30 minutes at 4° C. A human anti-al I antibody (Creative BioLabs) was included as a positive control as well as the appropriate IgG isotype negative controls. Cells were washed twice and incubated with PE conjugated secondary antibodies specific to the IgG class of the anti-α11 antibodies being tested for 30 minutes at 4° C. Cells were washed twice and fixed in 1% PF A for 30 minutes. Cells were acquired on a FACS Verse […]. Data were analyzed by gating on single cells and determining the geometric Mean Fluorescence Intensity (gMFI) in the PE channel for each sample.
# Target sequence in this assay (P05556 21-798, chain 2 of 2, one chain of several): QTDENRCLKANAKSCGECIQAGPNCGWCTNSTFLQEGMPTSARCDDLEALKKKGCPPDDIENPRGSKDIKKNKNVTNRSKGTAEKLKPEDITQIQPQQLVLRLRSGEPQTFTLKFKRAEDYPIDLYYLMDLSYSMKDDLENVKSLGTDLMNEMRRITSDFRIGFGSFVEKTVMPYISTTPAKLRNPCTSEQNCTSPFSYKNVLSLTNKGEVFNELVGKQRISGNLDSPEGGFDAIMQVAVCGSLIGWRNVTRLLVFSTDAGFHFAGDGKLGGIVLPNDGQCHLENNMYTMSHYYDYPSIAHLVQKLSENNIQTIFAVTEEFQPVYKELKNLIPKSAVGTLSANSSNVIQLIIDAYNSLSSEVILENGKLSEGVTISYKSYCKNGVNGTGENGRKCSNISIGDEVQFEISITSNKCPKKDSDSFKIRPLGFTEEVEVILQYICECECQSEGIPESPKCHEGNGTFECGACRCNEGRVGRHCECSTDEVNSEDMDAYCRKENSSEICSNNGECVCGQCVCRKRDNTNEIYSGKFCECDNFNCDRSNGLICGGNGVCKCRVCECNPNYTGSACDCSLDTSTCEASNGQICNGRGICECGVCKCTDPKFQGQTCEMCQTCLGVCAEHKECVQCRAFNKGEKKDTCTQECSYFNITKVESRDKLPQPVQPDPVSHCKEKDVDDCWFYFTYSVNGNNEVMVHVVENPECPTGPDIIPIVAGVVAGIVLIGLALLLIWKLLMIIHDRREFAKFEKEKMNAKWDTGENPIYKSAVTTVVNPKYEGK
# [3] = target: T1, human α11 expressed on CHO-K1 cells; experiment: cell-based or functional assay; remark: listed apart in the source
# [4] = target: T1, human α11 expressed on CHO-K1 cells; experiment: flow cytometry on CHO cells expressing human α11 (CHO-α11β1 binding)
# Procedure: (§2) 200,000 cells (wild-type CHO-K1 cells or CHO-K1 cells expressing human α11) were incubated with each antibody at desired concentrations in FACS buffer for 30 min at 4° C. Then, the cells were washed with FACS buffer and incubated with secondary antibody at 1:100 dilution for 30 minutes at 4° C. Cells were then washed and fixed with 1% PF A in PBS for 20 minutes at room temperature; washed again and read on a cytometer in FACS buffer.
# [5] = target: T2, α11β1 on human pulmonary myofibroblasts; experiment: flow cytometry on TGFβ1-treated human pulmonary fibroblasts (myofibroblasts)
# Procedure: as §1
# Target sequence in this assay (P05556 21-798, one chain of several): as the sequence (P05556 21-798, chain 2 of 2, one chain of several) above
# [6] = target: T1, human α11 expressed on CHO-K1 cells; experiment: flow cytometry on CHO-K1 cells expressing human α11 (title: CHO-hu α11 Binding); MFI against Log [µg/ml]
# Procedure: as §2
# recombinant human α11β1 = target: T3, recombinant human α11β1 (human, UniProt Q9UKX5 23-1141; P05556 21-728, limits assumed); experiment: SPR (Biacore T200), HIS-tagged human α11β1 captured by anti-HIS, antibody injected, single cycle kinetics, 1:1 model
# T3 construct: HIS-tagged heterodimer captured by anti-HIS antibody in SPR; also called HIS-tagged human α11β1; soluble human α11β1
# T3 sequence (P05556 21-728 limits assumed, chain 2 of 2, one chain of several): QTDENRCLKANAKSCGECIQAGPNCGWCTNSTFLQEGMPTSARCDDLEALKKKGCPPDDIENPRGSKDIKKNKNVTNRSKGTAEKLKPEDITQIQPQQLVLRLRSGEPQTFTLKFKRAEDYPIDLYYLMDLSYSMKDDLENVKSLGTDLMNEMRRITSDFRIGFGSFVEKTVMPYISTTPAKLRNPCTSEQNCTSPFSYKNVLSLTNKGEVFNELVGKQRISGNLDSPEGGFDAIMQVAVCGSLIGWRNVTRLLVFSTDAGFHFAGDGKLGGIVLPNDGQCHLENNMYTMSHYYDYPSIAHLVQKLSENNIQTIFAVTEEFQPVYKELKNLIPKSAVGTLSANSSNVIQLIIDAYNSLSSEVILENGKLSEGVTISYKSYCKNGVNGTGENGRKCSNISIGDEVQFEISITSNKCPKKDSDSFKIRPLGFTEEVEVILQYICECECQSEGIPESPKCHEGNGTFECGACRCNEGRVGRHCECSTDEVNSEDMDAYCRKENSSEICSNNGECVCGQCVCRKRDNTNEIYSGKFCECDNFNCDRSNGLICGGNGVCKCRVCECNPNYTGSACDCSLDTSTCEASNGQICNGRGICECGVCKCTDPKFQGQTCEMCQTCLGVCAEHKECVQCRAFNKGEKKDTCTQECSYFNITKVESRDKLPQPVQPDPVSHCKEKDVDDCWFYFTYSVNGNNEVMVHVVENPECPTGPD
# Procedure: The affinity of antibodies for human α11β1 was measured by surface plasm on resonance assay (SPR). Affinity was measured at pH 7.6 and 25° C. with a Biacore T200 instrument. Anti-HIS antibody was immobilized on the SPR sensor surface using EDC/NHS covalent attachment. HIS-tagged human α11β1 was captured on the sensor surface and a single cycle kinetics assay was used. Increasing concentrations of test antibody were injected in series over the sensor-bound α11β1. Dissociation was monitored for 1000 seconds. A sensor surface with only anti-HIS antibody and a series of blank injections were used to double-reference subtract the data. A 1:1 Langmuir model was fit to the data to estimate the kinetic association and dissociation constants. The affinity (equilibrium dissociation constant) of the interaction was calculated by dividing the kinetic dissociation constant by the kinetic association constant. Between injection cycles α11β1 and bound antibody were removed with an injection of 10 mM glycine at pH 1.5.
Binder,"IC50 (read off the curve), inhibition of cell adhesion to type I collagen [1] [µg/mL]",EC50 (read off the curve) [2] [µg/mL],CHO-hu α11 adhesion inhibition (IC50) [3] [nM],EC50 [4] [nM],EC50 [5] [nM],EC50 (read off the curve) [6] [µg/mL],Kd (recombinant human α11β1) [nM]
B1,~0.6,~0.4,–,–,–,–,–
B2,~0.5,~0.5,3.3,3.5,3.5,~0.4,0.24
B3,~0.5,~0.4,–,–,–,–,–
B4,~0.6,~0.6,–,–,–,~0.8,–
B5,–,–,9.4,3.4,3.35,–,1.3
B6,–,–,0.39,0.3,0.35,–,0.048
